{
  "source": "patent US7838495B2",
  "about": "“Compositions and methods of use of EPB1, and ErbB3 binding protein” (University of Maryland, Baltimore, priority 2007, dated 2010)",
  "molecules": {"B1": {"name": "EBP1: ErbB3 binding protein (SEQ ID NO: 2), AR corepressor, here ectopically expressed in cancer cells by stable transfection of an expression plasmid (protein, listed as Homo sapiens)", "chain": "MSGEDEQQEQTIAEDLVVTKYKMGGDIANRVLRSLVEASSSGVSVLSLCEKGDAMIMEETGKIFKKEKEMKKGIAFPTSISVNNCVCHFSPLKSDQDYILKEGDLVKIDLGVHVDGFIANVAHTFVVDVAQGTQVTGRKADVIKAAHLCAEAALRLVKPGNQNTQVTEAWNKVAHSFNCTPIEGMLSHQLKQHVIDGEKTIIQNPTDQQKKDHEKAEFEVHEVYAVDVLVSSGEGKAKDAGQRTTIYKRDPSKQYGLKMKTSRAFFSEVERRFDAMPFTLRAFEDEKKARMGVVECAKHELLQPFNVLYEKEGEFVAQFKFTVLLMPNGPMRITSGPFEPDLYKSEMEVQDAELKALLQSSASRKTQKKKKKKASKTAENATSGETLEENEAGD", "modifications": "FLAG tag"}},
  "key": {"[1]": {"test_system": "androgen-responsive genes", "assay": "Microarray gene expression profiling of LNCaP cells stably transfected with EBP1", "assay_type": "cell-based, human", "settings": "EPB1-overexpressing LNCaP cells vs controls", "method": "Microarray Analysis: First and second strand cDNA were synthesized from 5-15 μg of total RNA at Genome Explorations (Nashville, Tenn.) using the SuperScript Double-Stranded cDNA Synthesis Kit (Gibco Life Technologies, Gaithersburg, Md.) and an oligo-dT24-T7 (5′-GGCCAGTGAATTGTAATACGACTCACTATAGGGAGGCGG-3′) (SEQ ID NO: 3) primer according to the manufacturer's instructions. cRNA was synthesized labeled with biotinylated UTP and CTP by in vitro transcription using the T7 promoter-coupled, double-stranded cDNA as template and the T7 RNA Transcript Labeling Kit (ENZO Diagnostics Inc., Farmingdale, N.Y.). The fragmented cRNA was hybridized for U133A oligonucleotide arrays (Affymetrix, Santa Clara, Calif.) containing ˜33,000 full-length annotated genes, together with additional probe sets designed to represent EST sequences. The arrays were then stained with phycoerythrein-conjugated streptavidin (Molecular Probes, Eugene, Oreg.), and the fluorescence intensities were determined using a laser confocal scanner (Hewlett-Packard, Palo Alto, Calif.). The scanned images were analyzed using Microarray software (Affymetrix). Sample loading and variations in staining were standardized by scaling the average of the fluorescent intensities of all genes on an array to constant target intensity for all arrays used. The signal intensity for each gene was calculated as the average intensity difference, represented by [E(PM−MM)/(number of probe pairs)], where PM and MM denote perfect-match and mismatch probes. Data analysis was conducted using Microarray Suite 5.0 (Affymetrix) following user guidelines. Only genes with a minimum expression level of 500 were included in this analysis. […] AR-regulated genes include the Androgen Receptor (AR), PSA (kallikrein 3), Kallikrein 2, POV-1, TMPRSS2, and prostate-derived factor.\nEctopic expression of EPB1 downregulates androgen-regulated genes: Gene expression profiling of LNCaP cells stably transfected with EBP1 was used to determine the range of androgen-dependent genes affected by EPB1 overexpression. These cells overexpress EPB1 protein between two- and three-fold (Zhang et al., 2002, Repression of Androgen Receptor Mediated Transcription by the ErbB-3 Binding Protein EPB1, Oncogene, 21: 5609-5618). Changes in gene expression were measured using microarray analysis of 33,000 transcripts on the Affymetrix U133A chip. To compile a list of differentially regulated genes, only those genes that were activated or repressed at least 3-fold (p<0.05, 500 minimum expression units) were included. […] Forty-one genes were induced and 126 were repressed. Seventy-two of these genes have HUGO approved names. […] These include the Androgen Receptor (3.7 fold decrease), PSA (3.7 fold decrease) as previously reported (Zhang et al., 2002, Repression of Androgen Receptor Mediated Transcription by the ErbB-3 Binding Protein EPB1, Oncogene, 21: 5609-5618), Kallikrein 2 (3.2 fold decrease), POV-1 (5.0 fold decrease), TMPRSS2 (3.2 fold decrease), and prostate-derived factor (3.2 fold decrease). The Kallikrein 2 gene is regulated by AR, predominantly expressed in prostate tissue, secreted by LNCaP cells, and 78% homologous to PSA. […] The TMPRSS2 gene is androgen-regulated and also highly expressed in prostate and prostate cancer (Afar et al., 2001, Catalytic Cleavage of the Androgen-Regulated TMPRSS2 Protease Results in its Secretion by Prostate and Prostate Cancer Epithelia, Cancer Res., 61:1686-1692)."}, "[2]": {"test_system": "Androgen Regulated Genes", "assay": "Microarray analysis of EBP1 and vector transfected C81 cells", "assay_type": "cell-based, human", "settings": "EBP1 transfected C81 cells vs vector control", "method": "Microarray Analysis and Bioinformatics. RNA was prepared using the Trizol Reagent as previously described (8). Microarray processing and data analysis was performed at Genome Explorations (Nashville, Tenn.). U133A oligonucleotide arrays (Affymetrix) containing ˜33,000 full length annotated genes together with additional probe sets designed to represent EST sequences were used for the analysis. Only genes with a minimum expression level of 500 were included in this analysis. […] Oncomine analyses were performed by using Oncomine 3.0 (www.oncomine.org). Real Time Quantitative Reverse-Transcription PCR. Both cell culture samples and a commercial panel of cDNAs from normal prostate and prostate tumors (TissueScan, Origene, Rockville, Md.) were examined. The method of Nakanishi et al. (15) was used as previously described. Real-time quantitative RT-PCR was performed on the LightCycler® (Roche) platform. The following forward and reverse primers were selected using Primer Express software and synthesized by the Core Laboratory of University of Maryland School of Medicine: Ebp1, sense: 5′-GCA CGC CAA TAG AAG G-3′ (SEQ ID NO: 16) and antisense: 5′-GTA AAC GGC ATG GCA TC-3′ (SEQ ID NO: 17) kallikrein-2 sense: 5′-CAT CCA GTC TCG GAT TG-3′ (SEQ ID NO: 18) and antisense: 5′-CTC ATA TTG TAG AGC GGG T-3′ (SEQ ID NO: 19), TSPY, sense: 5′-CAGGGCTTCTCATTCCACTC-3′ (SEQ ID NO: 20) and antisense: 5′-CCATCATATTCAACTCAACAA CTGG-3′ (16; SEQ ID NO: 21), AGR2, sense: 5′-ATTGGCAGAGCAGTTTCTCC-3′ (SEQ ID NO: 22) and antisense, 5′-GAGCTGTATCTGCAGGTTCGT (17; SEQ ID NO: 23) 13-Actin, sense: 5′-GCTATCCAGGCTGTGCTATC-3′ (SEQ ID NO: 24) and antisense 5′-TGT CAC GCA CGA TTT CC-3′ (SEQ ID NO: 25). A SYBR®Green PCR Kit was used as per the manufacturer's instructions (Applied Biosystems, Foster City, Calif.) and the analyses were performed in duplicate or triplicate."}},
  "data": [
    {"molecule": "B1", "values": [
      {"measurement": "Androgen Receptor expression, fold decrease", "setting": "[1]", "result": 3.7, "unit": "fold"},
      {"measurement": "Kallikrein 2 expression, fold decrease", "setting": "[1]", "result": 3.2, "unit": "fold"},
      {"measurement": "POV-1 expression, fold decrease", "setting": "[1]", "result": 5.0, "unit": "fold"},
      {"measurement": "PSA expression, fold decrease", "setting": "[1]", "result": 3.7, "unit": "fold"},
      {"measurement": "TMPRSS2 expression, fold decrease", "setting": "[1]", "result": 3.2, "unit": "fold"},
      {"measurement": "prostate-derived factor expression, fold decrease", "setting": "[1]", "result": 3.2, "unit": "fold"},
      {"measurement": "Fold Decrease, AGR2", "setting": "[2]", "result": 7.1},
      {"measurement": "Fold Decrease, Androgen regulated serine protease TMPRSS2", "setting": "[2]", "result": 4.0},
      {"measurement": "Fold Decrease, Prostate Cancer overexpressed POV", "setting": "[2]", "result": 5},
      {"measurement": "Fold Decrease, Prostate Differentiation Factor mRNA", "setting": "[2]", "result": 5.4},
      {"measurement": "Fold Decrease, Prostate Specific Antigen", "setting": "[2]", "result": 5.5},
      {"measurement": "Fold Decrease, Prostatic Kallikrein 2", "setting": "[2]", "result": 5.4},
      {"measurement": "Fold Decrease, TSPY", "setting": "[2]", "result": 9.5}
    ]}
  ]
}
